For one sequence, binding results are on record in article PMC7674646, “Structural and Functional Analyses of the Transcription Repressor DgoR From Escherichia coli Reveal a Divalent Metal-Containing D-Galactonate Binding Pocket” (Frontiers in Microbiology, 2020).

What all share (experiment): EMSA
Holding throughout (conditions): EMSA: 25 mM Tris-HCl pH 8.0, 50 mM KCl, 2.5 mM MgCl2, 5% glycerol, 1 mM DTT, 100 ug/mL salmon sperm DNA, 100 ng Cy5 probe in 20 ul, 25 C 20 min; native PAGE at …

Data set [1] addresses T1, DgoR R102A R102A (Escherichia coli) (UniProt P31460).
T1 sequence: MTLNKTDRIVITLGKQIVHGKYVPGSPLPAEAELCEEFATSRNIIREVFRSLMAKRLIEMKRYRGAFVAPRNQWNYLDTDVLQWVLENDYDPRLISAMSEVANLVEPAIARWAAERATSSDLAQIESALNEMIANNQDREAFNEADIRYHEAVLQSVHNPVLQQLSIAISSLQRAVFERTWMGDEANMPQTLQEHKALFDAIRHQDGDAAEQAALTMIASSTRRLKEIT

The target of data set [2] is T2, DgoR R224E R224E (Escherichia coli) (UniProt P31460).
T2 sequence: T1 sequence with A102R, R224E

Data set [3] deals with T3, DgoR W181A W181A (Escherichia coli) (UniProt P31460).
T3 sequence: T1 sequence with A102R, W181A

The target of data set [4] is T4, DgoR Q173A Q173A (Escherichia coli) (UniProt P31460).
T4 sequence: T1 sequence with A102R, Q173A

The target of data set [5] is T5, DgoR D184A D184A (Escherichia coli) (UniProt P31460).
T5 sequence: T1 sequence with A102R, D184A

Data set [6] has as its target T6, DgoR S221A S221A (Escherichia coli) (UniProt P31460).
T6 sequence: T1 sequence with A102R, S221A

Data set [7] deals with T7, DgoR H195A H195A (Escherichia coli) (UniProt P31460).
T7 sequence: T1 sequence with A102R, H195A

Data set [8] addresses T8, DgoR T191A T191A (Escherichia coli) (UniProt P31460).
T8 sequence: T1 sequence with A102R, T191A

For data set [9], the target named is T9, DgoR D146A D146A (Escherichia coli) (UniProt P31460).
T9 sequence: T1 sequence with A102R, D146A

The target of data set [10] is T10, DgoR (EcoDgoR) WT (Escherichia coli) (UniProt P31460).
T10 sequence: T1 sequence with A102R

In data set [11] the target is T11, DgoR R179A R179A (Escherichia coli) (UniProt P31460).
T11 sequence: T1 sequence with A102R, R179A

Data set [12] deals with T12, DgoR H150A H150A (Escherichia coli) (UniProt P31460).
T12 sequence: T1 sequence with A102R, H150A

For data set [13], the target named is T13, DgoR R224A R224A (Escherichia coli) (UniProt P31460).
T13 sequence: T1 sequence with A102R, R224A

Where a chain is given by its changes, count along the chain named.

Turning to “TGTAAAACGACGGCCAGTGCATTGTTCTTTTTGTGATCTAAATTGTAGTACAACAATATAAGTTTGTACTACATTACACGCACGGCAAACGCGAACGTCATCACGCTGGTACTACAAAGTTGCCGCGTTATGCATCGATCGGGGTAAAGTAGAGAAGAACATACAGAGCACAAGGACTCTCCATGACTCTCAATAAAACCGATCGCATTGTC (double strand) [dgo cis-acting element (promoter region)]”, the binding entry in [1] is given as “binds more weakly”; in [2] it was “binds more weakly”; in [3] it was “binds”; in [4] it was “binds more weakly”; in data set [5], “binds more weakly”; in data set [6] it was “binds”. The binding entry is on record as “binds more weakly” in data set [7]; “binds more weakly” in data set [8]; “binds” in [9]; “binds” in [10]; “binds” in data set [11]; “binds more weakly” in data set [12]. Besides, the binding result in data set [13] is “binds more weakly”.
